Results from paper PMC8535069.

B1: His6-RGS19 (natural protein)
chain: MPTPHEAEKQITGPEEADRPPSMSSHDTASPAAPSRNPCCLCWCCCCSCSWNQERRRAWQASRESKLQPLPSCEVCATPSPEEVQSWAQSFDKLMHSPAGRSVFRAFLRTEYSEENMLFWLACEELKAEANQHVVDEKARLIYEDYVSILSPKEVSLDSRVREGINKKMQEPSAHTFDDAQLQIYTLMHRDSYPRFLSSPTYRALLLQGPSQSSSEA

Legend:
[1] = biological target: Gαo with the Gln52 mutation; test: co-IP; N2a cells co-transfected 24 h with Gαo-GFP constructs and His6-RGS19 (1:1) or mRFP-Gβ1/mRFP-Gγ3 (1:1:1); lysate in GST-lysis buffer (20 mM Tris-HCl pH 8.0, 1% Triton X-100, 10% glycerol in PBS); Gαo-GFP precipitated with GST-tagged GFP nanobody and glutathione Sepharose 4B overnight at 4 °C; Western blot against GFP, mRFP, His6; blots quantified, normalised to the precipitated Gαo, 5 experiments
[2] = biological target: Gαo[Gln52Pro] and Gαo[Gln52Arg]; test: as above

Row | Molecule | fold reduction of co-precipitation against wild-type Gαo [1] [fold] | fold reduction of co-precipitation against wild-type Gαo [2] [fold]
1 | Gβ1γ3 heterodimer (mRFP-Gβ1 and mRFP-Gγ3) (from UniProt P62873 1-340; P63215 1-75) (complex) | 2 to 4 | –
2 | B1 | – | 2 to 3
